Test results: US20020091083

Biological target: YB-1 (expressed from YB-1/RSV) (Homo sapiens) (UniProt P67809)
Experiment: cell_activity
Conditions: human glioblastoma cells

| Substance | activity (relative CAT activity) (repression, empty vector pRc/RSV = 1.0) | activity (relative CAT activity) (no repression, empty vector pRc/RSV = 1.1) |
| --- | --- | --- |
| COL1A2 promoter -161 to +57 CAT binding reporter | 0.6 | – |
| COL1A2 promoter -161 to +57 CAT non-binding reporter | – | 1 |
